From paper PMC4368798, “Protein-Binding RNA Aptamers Affect Molecular Interactions Distantly from Their Binding Sites”

Assays:
pro-uPA wild type;uPAR [1] = biological target: T1, pro-uPA wild type;uPAR (Homo sapiens;Homo sapiens, UniProt P00749;Q03405 21-431;23-305, |); test: SPR competition; 200 nM control RNA; no significant effect on vitronectin binding; SPR: HBS (20 mM HEPES, 140 mM NaCl, pH 7.4), 2 mM MgCl2, 0.1% BSA, 0.005% Tween 20, temperature not stated; SAXS: HBS, 2 mM MgCl2, 25 C; conditions: protein: recombinant;recombinant; tags: ;; copies: 1;1
pro-uPA wild type [2] = biological target: T2, pro-uPA wild type (Homo sapiens, UniProt P00749 21-431); test: SPR competition; up to 200 nM control RNA; no effect on pro-uPA binding to LRP-1A; SPR: HBS (20 mM HEPES, 140 mM NaCl, pH 7.4), 2 mM MgCl2, 0.1% BSA, 0.005% Tween 20, temperature not stated; SAXS: HBS, 2 mM MgCl2, 25 C; conditions: protein: recombinant
pro-uPA wild type;uPAR [3] = biological target: T1, pro-uPA wild type;uPAR; test: SPR; 100 nM aptamer on captured pro-uPA:uPAR; SPR: HBS (20 mM HEPES, 140 mM NaCl, pH 7.4), 2 mM MgCl2, 0.1% BSA, 0.005% Tween 20, temperature not stated; SAXS: HBS, 2 mM MgCl2, 25 C; conditions: protein: recombinant;recombinant; tags: ;; copies: 1;1
pro-uPA wild type [4] = biological target: T2, pro-uPA wild type; test: competition, 125I-pro-uPA cell binding; U937 cells, 1 h, 4 C; effect lost on prolonged incubation; SPR: HBS (20 mM HEPES, 140 mM NaCl, pH 7.4), 2 mM MgCl2, 0.1% BSA, 0.005% Tween 20, temperature not stated; SAXS: HBS, 2 mM MgCl2, 25 C; conditions: protein: recombinant
pro-uPA Y284/127A = pro-uPA Y284/127A (Homo sapiens, UniProt P00749 21-431, Y304A); test: SPR competition; still inhibits uPAR binding (data not shown); SPR: HBS (20 mM HEPES, 140 mM NaCl, pH 7.4), 2 mM MgCl2, 0.1% BSA, 0.005% Tween 20, temperature not stated; SAXS: HBS, 2 mM MgCl2, 25 C; conditions: protein: recombinant; 79 nt
pro-uPA R391/231A = pro-uPA R391/231A (Homo sapiens, UniProt P00749 21-431, R411A); test: as above; conditions: protein: recombinant; 79 nt
ATF of uPA = ATF of uPA (UniProt P00749 21-151); test: SPR competition; inhibition of 4 nM ATF binding to immobilized uPAR; SPR: HBS (20 mM HEPES, 140 mM NaCl, pH 7.4), 2 mM MgCl2, 0.1% BSA, 0.005% Tween 20, temperature not stated; SAXS: HBS, 2 mM MgCl2, 25 C; conditions: protein: commercial; 79 nt
GFD of uPA = biological target: T3, GFD of uPA (Homo sapiens, UniProt P00749 24-63); test: SPR competition; 50 nM aptamer; no inhibition of GFD binding to uPAR; SPR: HBS (20 mM HEPES, 140 mM NaCl, pH 7.4), 2 mM MgCl2, 0.1% BSA, 0.005% Tween 20, temperature not stated; SAXS: HBS, 2 mM MgCl2, 25 C; conditions: protein: recombinant; 79 nt
T3 chain: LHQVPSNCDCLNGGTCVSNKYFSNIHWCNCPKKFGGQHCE

pro-uPA wild type [5] = biological target: T2, pro-uPA wild type; test: SPR competition; inhibition of 4 nM pro-uPA binding to immobilized uPAR; SPR: HBS (20 mM HEPES, 140 mM NaCl, pH 7.4), 2 mM MgCl2, 0.1% BSA, 0.005% Tween 20, temperature not stated; SAXS: HBS, 2 mM MgCl2, 25 C; conditions: protein: recombinant; 79 nt

T1 sequence (Q03405 23-305, chain 2 of 2, other chains not shown): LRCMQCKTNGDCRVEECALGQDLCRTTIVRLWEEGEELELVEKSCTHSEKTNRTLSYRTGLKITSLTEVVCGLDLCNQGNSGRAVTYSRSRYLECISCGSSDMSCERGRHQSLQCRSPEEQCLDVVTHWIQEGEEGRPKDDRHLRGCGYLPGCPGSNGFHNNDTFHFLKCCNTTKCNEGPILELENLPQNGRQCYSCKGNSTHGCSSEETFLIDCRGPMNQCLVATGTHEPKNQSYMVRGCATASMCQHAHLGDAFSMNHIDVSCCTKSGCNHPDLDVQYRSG

B1: control RNA (XNA)
RNA: GGGGCCACCAACGACAUUAACUCACGUUGCAACUAAUACGCUGAGUGGAAACCGUUGAUAUAAAUAGUGCCCAUGGAUC
modifications: 2'-fluoro pyrimidines (2'-F-C, 2'-F-U)
B1: no binding (pro-uPA wild type;uPAR [1]); no binding (pro-uPA wild type [2]).

B2: upanap-126 (XNA)
RNA: GGGGCCACCAACGACAUUCAUUCGCACGCUGUGUGGGGAUUAGUCCCGAUGUUGUUGAUAUAAAUAGUGCCCAUGGAUC
modifications: 2'-fluoro pyrimidines (2'-F-C, 2'-F-U)
In the case of B2, the binding result (pro-uPA wild type;uPAR [3]) is reported as “binds” and the IC50 (pro-uPA wild type [4]) is reported as ~500 nM.

B3: upanap-12 (XNA)
RNA: GGGGCCACCAACGACAUUUGCGACUGUUAUAACCUAACAGCGACGUAAAGAUAGUUGAUAUAAAUAGUGCCCAUGGAUC
modifications: 2'-fluoro pyrimidines (2'-F-C, 2'-F-U)
With B3 the binding result (pro-uPA Y284/127A) was “binds”, the binding result (pro-uPA R391/231A) was “binds” and the IC50 (ATF of uPA) was 1.8 ± 0.2 nM. The binding result (GFD of uPA) was “no binding” and the IC50 (pro-uPA wild type [5]) was 2.2 ± 0.1 nM.
